# B1: Arabidopsis thaliana 14-3-3 omicron (natural protein, UniProt Q9S9Z8 1-252, looked up)
# chain: MENERAKQVYLAKLNEQAERYDEMVEAMKKVAALDVELTIEERNLLSVGYKNVIGARRASWRILSSIEQKEESKGNEQNAKRIKDYRTKVEEELSKICYDILAVIDKHLVPFATSGESTVFYYKMKGDYFRYLAEFKSGADREEAADLSLKAYEAATSSASTELSTTHPIRLGLALNFSVFYYEILNSPERACHLAKRAFDEAIAELDSLNEDSYKDSTLIMQLLRDNLTLWTSDLEEGGEQSKGHNQQDEN
# notes: 14-3-3 omicron, Arabidopsis thaliana, epsilon group; construct provided by Prof; Robert J. Ferl; source: E. coli C41(DE3), purified (IMAC, thrombin cleavage of the His6-tag, subtractive IMAC, preparative SEC; aliquots before preparative SEC for SEC-MALS)
# Target: the molecule itself
# Experiment: SEC-MALS; Superdex 200 Increase 10/300, 0.8 ml/min; 65 µl of ~3 mg/ml or 100 μM per monomer loaded; 20 mM Tris-HCl pH 7.5, 150 mM NaCl, 5 mM βME, 3 mM NaN3; samples before preparative SEC; self-association, monomers to dimer (small tetramer peak for six isoforms)
protein,measurement,value
B1,stoichiometry N,2

# — paper doi:10.1101/2024.07.02.601760, “Multi-dimensional demarcation of phylogenetic groups of plant 14-3-3 isoforms using biochemical signatures” (bioRxiv, 2024)
